Tests used:
lens epithelial explants [1] = assay: Lens epithelial explants cultured on laminin substratum with TGFβ and/or FGF; format: cell-based, rat; settings: explants from 21-day-old rats, TGFβ 20 ng/ml, in the presence or absence of FGF 2 ng/ml, 5 day culture
Method: (§1) Each experiment involved culturing explants for up to 5 days without added growth factors (controls), with TGFβ, with a combination of TGFβ and FGF (TGFβ/FGF), or with FGF alone. FGF is another growth factor that influences lens cell behaviour (Chamberlain and McAvoy, 1989; McAvoy et al., 1991). In some experiments, explants were prepared by a standard method used in our laboratory in which the adhering capsule serves as the substratum for the cells. In others, explants were inverted onto a laminin substratum. The latter method allows cell attachment, spreading and migration to be monitored as well as providing good visualisation of individual cells.
Bovine brain basic FGF was prepared and stored at −20° C. as described by Chamberlain and McAvoy (1989). Ultrapure natural human TGFβ1 was obtained from Genzyme (Cambridge, Mass.) and stored at −80° C. Working stock solutions of TGFβ and FGF were prepared (in culture medium or 1% bovine serum albumin—0.5 M NaCl in phosphate-buffered saline, respectively) and centrifuged at 10,000 g for 10 min at 4° C. just before use.
This method is as described by Hales et al (1992) Briefly, on the day before the experiment, culture dishes were pre-coated with laminin. […] Responses were monitored daily by phase contrast microscopy.

lens epithelial explants [2] = assay: Influence of TGFβ alone and in combination with FGF on lens epithelial explants (standard method); format: cell-based, rat; settings: TGFβ 20 ng/ml, up to 5 days culture; summary of Example 1
Method: Lens explants were prepared from both postnatal and adult rats and changes during 5 days culture with growth factor(s) were monitored by light and electron microscopy, immunolocalisation of laminin, heparan sulphate proteoglycan and fibre-specific crystallins, and crystallin ELISAs.
as §1, with “individual cells. […]” for “individual cells.”
Explants used for immunofluorescent localisation were collected at the end of the culture period, fixed in Carnoy's fixative for 20 min at room temperature, transferred to 70% ethanol, then covered with a drop of melted 2.5% agar, before dehydrating in ethanol and embedding in paraffin. […] Controls for non-specific fluorescence were included routinely, that is, sections were treated with non-immune rabbit serum instead of specific antibody. […]

[3] = tested on: TGFβ-induced cataract-like changes in rat lens epithelial explants; assay: Explant study using α2-macroglobulin to inhibit TGFβ-induced cataract-like changes; format: cell-based; set-up: key to cataract-like changes: extent of spindle-like elongation: −, negligible change or reverted to predominantly epithelial morphology; +-++++, indicates extent of spindle-like elongation; +-++++, indicates extent of spindle-like elongation; +-++++, indicates extent of spindle-like elongation; +-++++, indicates extent of spindle-like elongation; †-††††, indicates extent of cell loss; †-††††, indicates extent of cell loss; †-††††, indicates extent of cell loss; †-††††, indicates extent of cell loss; o, elongation assessment was invalidated by cell loss
Method: α2-macroglobulin prepared from bovine plasma was obtained from Boehringer Mannheim Australia (Castle Hill, NSW; #602 442). Lens epithelial explants (2 per culture dish) were prepared from 21-day-old rats as described previously (See Example 1, Standard Method). α2-macroglobulin was dissolved in culture medium (defined in Example 1) at a final concentration of 400 μg/ml. The solution was sterilised by passing through a 0.22 μm filter and a portion was diluted with an equal volume of sterile medium. These solutions were equilibrated at 37° C. in 5% CO2/air before use. A stock solution containing 25 pg/10 μl TGFβ2 (Genzyme, Cambridge, Mass.) was prepared in sterile medium. Six treatment groups were then set up by replacing medium in culture dishes containing explants with 1 ml medium or 1 ml medium containing 200 or 400 μg/ml α2-macroglobulin, with or without added TGFβ, as indicated in Table 2. Explants were cultured and monitored for cataract-like changes by phase contrast microscopy. In particular, each explant was graded according to the extent of spindle-like elongation and cell death, which are characteristically observed in explants cultured with TGFβ (See Examples 1 and 2). Explants were photographed on days 3-5.

[4] = Day 4, TGFβ2 25 pg/ml, α2-MG 200 μg/ml
[5] = Day 4, TGFβ2 25 pg/ml, α2-MG 400 μg/ml
[6] = Day 5, TGFβ2 25 pg/ml, α2-MG 200 μg/ml
[7] = Day 5, TGFβ2 25 pg/ml, α2-MG 400 μg/ml

TGFβ: Ultrapure natural human TGFβ1 obtained from Genzyme (Example 1)
cell spreading and migration onto laminin substratum (lens epithelial explants [1]): inhibited spreading and migration
cell elongation in explants (lens epithelial explants [2]): extensive and rapid elongation
other TGFβ-induced cataract-like responses in explants (lens epithelial explants [2]): induced accumulation of extracellular matrix, capsule wrinkling, cell death by apoptosis and distinctive arrangements of cells

B1: α2-macroglobulin (protein, UniProt Q7SIH1 24-1510, looked up)
Alpha-2-macroglobulin: SVSGKPQYMVLVPSLLHTETPEKGCLLLSHLNETVTVSASLESVRENRSLFTDVVAEKDLFHCVSFTLPRSPTSQEVMFLTIQVKGPTQEFKKRTTVLVKNEESLVFVQTDKPIYKPEQTVKFRIVLLDESFHPLNELVPLVYVEDPKGNRIAQWQNLEVENGLQQLTFPLSSEPFQGSYKVVVQKGSGGTAEHPFTVEEFVLPKFEVQVRMPKIITILEEEVQVSVCGLYTYGKPVPGRVTMNMCRKYRNPSNCYGEESNAVCEKFSGELNNEGCFSQQVNTKIFQLKRQEFEMKIEVEAKIQEEGTEVELTGKGATEITTTITKLSFVTVDSNLRRGIPFTGKVLLVDGKGVPMPNKVIFITANEANHNSNTTTDEHGLAQFSITTTKIKGTSLSIRVKYKDHSPCYGYQWLSEEHQDAYHSANLVFSRSNSFVYLEPLPRELPCGKTQTVQAHYVLKGQVLKDLKELVFYYLIMAKGGIVRSGTHTLPVEQGDMQGHFSMSVPVESDIAPVARLLIYAILPDGEVVGDSARYEIEHCLANKVGLNFSPGQSFPASQAHLRVTASPQSLCALRAVDQSVLLMRPEAELSAATVYNLLPVKDLSSFPSSVNQQEEDNEDCISHDNVYINGIMYFPVSNTNEKDMYSFLQDMGLKAFTNSKIHKPKICPQPEEHRIQHHTLLASPVRAEMGRNRDFVHFDDTSEPPTETVRKYFPETWIWDLVVVSSSGVHEVEVTVPDTITEWKAGALCLSRDTGLGLSPTASLRVFQPFFVELTMPYSVIRGEAFTLKATVLNYLPKCIRVSVQLEASPAFLAVPEKEQETYCICGNGRQTVSWAVTPKSLGNVNFTVSAEAVESQELCGSEVPVVPEHGRKDTIIKPLLVEPEGLEKEVIFNSLLCPSVDFVFLGAEDGGQVLRHFPPAAATDTAADAHDPARPGAKVSESLSLKLPPNVVEESARASFSVLGDILGSAMRNTQNLLQMPYGCGEQNMARFAPNIYVLDYLNETQQLTAELKSKAILYLNTGYQRQLLYKHFDGSYSTFGEHRGNSEGNTWLTAFVLKSFAQARGYIFIDEAHITEALTWLAQKQKSNGCFRSTGTLLNNAIKGGVDDEVTLSAYITIALLEMPLPVTHPVVRNALFCLDSAWKSAKEGSQGSHVYTKALLAYAFALAGNQERRTEVLTSLYEEAVKEDNTIHWTRPQKPRLLTEDIYQPRAPSAEVEMTAYVILAHVTAQPAPNPEDLKRATSIVKWISKQQNCQGGFSSTQDTVVALHALSRYGAATFTSARKAAQVTIQSSGTFSTKFQVENSNRLLLQQVSLPEVPGEYSMSVTGEGCVYLQTSLKYNILPKKDEFPFALEVQTLPQTCDGPKAHTSFQISLSVSYIGSRPASNMAIVDVKMVSGFIPLKPTVKMLERSNVSRTEVSNNHVLIYLDKVTNETLTLTFTVLQDIPVRDLKPAIVKVYDYYETDEFAVAEYSAPCSKDIGNA
notes: α2-macroglobulin prepared from bovine plasma, Boehringer Mannheim Australia #602 442
cataract-like changes: extent of spindle-like elongation ([3]; Day 2, TGFβ2 0 pg/ml, α2-MG 200 μg/ml): −
cataract-like changes: extent of spindle-like elongation ([3]; Day 2, TGFβ2 0 pg/ml, α2-MG 400 μg/ml): −
cataract-like changes: extent of spindle-like elongation ([3]; Day 2, TGFβ2 25 pg/ml, α2-MG 200 μg/ml): −
cataract-like changes: extent of spindle-like elongation ([3]; Day 2, TGFβ2 25 pg/ml, α2-MG 400 μg/ml): −
cataract-like changes: extent of spindle-like elongation ([3]; Day 3, TGFβ2 0 pg/ml, α2-MG 200 μg/ml): −
cataract-like changes: extent of spindle-like elongation ([3]; Day 3, TGFβ2 0 pg/ml, α2-MG 400 μg/ml): −
cataract-like changes: extent of spindle-like elongation ([3]; Day 3, TGFβ2 25 pg/ml, α2-MG 200 μg/ml): + (+-++++, indicates extent of spindle-like elongation)
cataract-like changes: extent of spindle-like elongation ([3]; Day 3, TGFβ2 25 pg/ml, α2-MG 400 μg/ml): + (+-++++, indicates extent of spindle-like elongation)
cataract-like changes: extent of spindle-like elongation ([3]; Day 4, TGFβ2 0 pg/ml, α2-MG 200 μg/ml): −
cataract-like changes: extent of spindle-like elongation ([3]; Day 4, TGFβ2 0 pg/ml, α2-MG 400 μg/ml): −
cataract-like changes: extent of cell loss [3, 4]: † (†-††††, indicates extent of cell loss)
cataract-like changes: extent of spindle-like elongation [3, 4]: + (+-++++, indicates extent of spindle-like elongation)
cataract-like changes: extent of cell loss [3, 5]: † (†-††††, indicates extent of cell loss)
cataract-like changes: extent of spindle-like elongation [3, 5]: + (+-++++, indicates extent of spindle-like elongation)
cataract-like changes: extent of spindle-like elongation ([3]; Day 5, TGFβ2 0 pg/ml, α2-MG 200 μg/ml): −
cataract-like changes: extent of spindle-like elongation ([3]; Day 5, TGFβ2 0 pg/ml, α2-MG 400 μg/ml): −
cataract-like changes: extent of cell loss [3, 6]: † (†-††††, indicates extent of cell loss)
cataract-like changes: extent of spindle-like elongation [3, 6]: −
cataract-like changes: extent of cell loss [3, 7]: † (†-††††, indicates extent of cell loss)
cataract-like changes: extent of spindle-like elongation [3, 7]: −
inhibition of TGFβ-induced changes ([3]; TGFβ2 25 pg/ml, α2-macroglobulin 200 or 400 μg/ml, days 2-5): substantially inhibited
changes in explants cultured without TGFβ ([3]; medium containing α2-macroglobulin 200 or 400 μg/ml, no TGFβ, throughout the culture period): No significant changes

Reference: patent publication US20030130324A1, “METHOD FOR PREVENTING OR CONTROLLING CATARACT” (priority 1993, published 2003)
